According to a protein production outcome set (Wang et al. 2014):

Experiment: label from the status in PepcDB records

| Sequence | protein production |
| --- | --- |
| MTVEPFRNEPIETFQTEEARRAMREALRRVREEFGRHYPLYIGGEWVDTKERMVSLNPSAPSEVVGTTAKAGKAEAEAALEAAWKAFKTWKDWPQEDRSRLLLKAAALMRRRKRELEATLVYEVGKNWVEASADVAEAIDFIEYYARAALRYRYPAVEVVPYPGEDNESFYVPLGAGVVIAPWNFPVAIFTGMIVGPVAVGNTVIAKPAEDAVVVGAKVFEIFHEAGFPPGVVNFLPGVGEEVGAYLVEHPRIRFINFTGSLEVGLKIYEAAGRLAPGQTWFKRAYVETGGKDAIIVDETADFDLAAEGVVVSAYGFQGQKCSAASRLILTQGAYEPVLERVLKRAERLSVGPAEENPDLGPVVSAEQERKVLSYIEIGKNEGQLVLGGKRLEGEGYFIAPTVFTEVPPKARIAQEEIFGPVLSVIRVKDFAEALEVANDTPYGLTGGVYSRKREHLEWARREFHVGNLYFNRKITGALVGVQPFGGFKLSGTNAKTGALDYLRLFLEMKAVAERF | not failed |
| MSLEIIKTGLAAFGMSGQVFHAPFISTNPHFELYKIVERSKELSKERYPQASIVRSFKELTEDPEIDLIVVNTPDNTHYEYAGMALEAGKNVVVEKPFTSTTKQGEELIALAKKKGLMLSVYQNRRWDADFLTVRDILAKSLLGRLVEYESTFARYRNFIKPNTWKETGESGGGLTYNLGSHLIDQAIQLFGMPEAVFADLGILREGGKVDDYFIIHLLHPSLAPNVKITLKASYLMREAEPRFALHGTLGSYVKYGVDKQEAALLAGEIPERPNWGEESEQEWGLLHTEINGKEICRKYPGIAGNYGGFYQNIYEHLCLGQPLETHAQDILNVIRIIEAAYQSHRENKIVNLKEGHHHHHH | not failed |
| MKRSASLKEDVFLKSKVHFWTLEVLMVVAIIFICTKISFLFQPIGIFISTLFFPILIALFLYFIFNPVLVFLEEKKVPRNLAILLLYLFIITLTAVGVGVVVPTISQQLMDLVKNMPGYIKEGKLYIQDLSHHRLFEWLSTQNYVSIETIEKNAIEYLKDIPNTITSSATALFGIITNVALVIFTVPFILFYMFKDGHAFPGKAVSLLPESYREEGLRIIKETNETLSAYIQGQALVCIFVGAFTFIGYLIIDLPYAFVLGIIAAFTNIIPNLGPFIGAAPAVIVGLFVSPMQALYVIIIVTIVQQFESNIISPRIMSSKLNIHPLTIIILILGVGNFAGIIGMILAVPVYAVTKTVVSNLVRLFKTKRSNRK | failed |
| MDRGGVLRVAAAALPAYAYFYNVGSIGFWLPLHVRELGWPYTYITLIATWYFVAVTLATPLVGLLSDLTRRPGYILAGGMAVVAATSVAIPHVENPPLLMALRALQGLGLAVGLPIALGSLSLIQGVRRGVASTVIASGLGMSGGAFLSGLMVEYLGFPALFYAAAVPAALSTLVALGWRPPPPPSGSPGLLAALRSMPWEVLVVMAGIAVRNTFASGVFSVVSIIFNKIVGISYTATGVVLAINPAVQASVTTVFERIMRGRALLLYSTGLSGTALAFYLYLTAGSALDLAAAQIALGAFYGATVVSGNTMIIALAPSEIRYTASSLYTFAFNIGWILGTSIAGKVMDAAGVDAWIKLAIAGTLVSGLIPLTLLASPRARRI | failed |
| MSIESFNLLLLVMGLVALVVFIALYFVRAGYGMFRSRSWGISVNNKIAWILMEAPVFLVMGWLWWHSDRRFLPVELTFFLFFQLHYFQRAFVFPFLMKGKSKMPVLILLMGVIFNILNGLMQGEWIFYLAPSDYYTPGWLLTPCFWIGTLLFFAGMGINWHSDSVIRHLRAPGDTRHYLPQRGMYRYVTSANYLGEIVEWVGWAILTWSLSGCIFAWWTVANLVPRADAIWHRYREEFGTQVGLKKRIFPFLY | failed |
| MSDVISESALKSAKTEKNQKIYWDELKEGEQFSYGHYQVSEHENIDFAKRYDPMEFHVDPEKAKLSPIGALCASGIHTLGIMQRLTFDNIYTNWHIVAGRELRKCQFRLPVFVDDCLTVNMTIAKLSVDTRSDRGNAELTFDVKNAKGKTVLEVEGEIVLQRFPSI | failed |
| QNYWAVFDANKETLIVQTCSGLGLTAIDHLYPPHILPLDTDNETLGTTVLQALANSRTFVYDSPEDQDFFDTEKIRQRYEDWVAKLCGNLGYKTRRALFKNMMSVDIWLHNGCLKISPSRHVKLEAWNAIDADDVILSLDNSPEEIGAGLKLALSHC | failed |
| GRDFAVDTKIETIGLTGSLSFKVNDNFSLGAGVIIQRTSGFVSQNLDLYASAANSPGMGGIPFPASNSSALMRVKVDNTSPGFFAGAVWKPTDRDTLGFAYHAKIRNKLKGHYNLYDHDGGLTEGAIEGGTPGLAYPGLDLRMGASASARLDIPAYASLDWVHQFNDRLSLGASATWTEWSSFQDLTLKSHGNTIVSIPYTYRNTWTLAVGGDYKVTDQWTMRAGVAYDQTPTHNATRDPRIPDGDRYFASLGAGYRFQSMPELSIDAAYSRQFVKEVPLKTV | failed |
| MAFSVAYDLIPNKLIKDIDEMNQWLHDKINRAVYLVGFATQQSDYEYKLYELFKALDELEERLKKQLFLFGNQLTESDLYLLATLERFDNIYFCLFKCSLKRIADYPALFRYHNQLRGMESLASTYQPVLTKEHYFMSTMHVLGLEHHHHHH | failed |
| MDQNAILLALGGIGAAALLSQWLAWRLRLPAILFLLLSGIVAGPLLGWLDPDEMFGPLLFPLVSLAVALILFEGSLTLHFSEWKEIGTVVHRMVTIGALSTWGVIALAAHYLLDFSWEMALLFGTLTLVTGPTVIVPMLRVVRPKAAVANILRWEGIVIDPIGALLAVVVYSFIISSGEGDGWLHSLQTFGGVILCGSLFGILGGWALGIVLRRHWLPDYLHNLATLAAVLGVFIASNRVMHESGLLAVTLMGMGLANMKGVDVRQILHFKENLSVLLISGLFILLAARLDINALLGLGPAALLVLLLIQFVARPLNVALSTWGSPLSWRERALLSWIAPRGIVAAAVSAIFAIRLSAEGHAQAALLVPLTFLVIIGTVVLQSATARPLARLLKVAEPSPSGYLIVGANPVGRAIGKALKSLGSRVLLTDSSWENIRAARMDNLPTYFGNPTSQHAEAHLDLVGIGHLLGVSPAGELNTLAAMRFRHEFGHRQLFGLPTSQEAKRTDKHRSSDEHRGRPLGQRPLTYAQFASLLSRGAEIRTTLLTDTFGWNDYQALHGESAILLFARDPNGRMHVATPQSTLAPGTGWTLLSLIDAEPSVSKSQATEIAD | failed |
| MCCPPMTSSSSLSHHASQSGQVRLCPGCELPIDAITVDQAHSAHCPRCGTLLYRGGSPSLSGDLALAVTCLLLFIPSHFFSYIDIRLFGVMIPATLPQGVFALWDEGYIALALLVLFCSSIAPLVLCLSVVSAHLALRFRYFQTLRYSLLFIHHLKVWVMIDVFLVSVAVSCFKLKDYSDIFIGPGLLGLVLLQLFTVLLLSRISTRRYWETWQAETEYDLPVKQVHCHNCHLSQPENGHCVRCQHKLYHRKPNSIERTWAYVLAATVAIFPANLIPISILITNGQRLEDTIFSGVASLVKNGMWGIALIIFVASIVVPVIKIIGLAYLLMAIKLKRHVHQRQRMMIYRGIKWIGKWSVMDLFVISIMLTLVDRGQILDFTPGYGAVAFGMVVVLTMLAAESLDPRLLWDEPDSTRTQQ | failed |
| MFKRCFSPLTLVNQLALIVMLSTAIGVAGMAVSGWLVQGVQGSAHAINKAGSLRMQSYRLLAAVPLDAKDQKLLDEMEQTAFSPELTRAAERDGQQKQLKALQDYWHNELSPRLQHAQNAHAVAEDITRFVAGLDRLVTSFDHTTELRIERVVLVHRVMAIFMALLLVFTIIWLRVRLLQPWKQLLSMARAVSQRDFTQRANISGRNEMAALGSALNNMSEELAESYAVLEQRVQEKTAGLEHKNQILSFLWQANRRLHSQAPLCERLSPVLNGLQNLTQLHDIELRVYDLEDEDNHQEFTCQSDISCDDKGCHLCPRSALPMINGGTTLKWRLTDSHTQYGILLATLPYGRHLSHDQQQLVDTLVEQLTATLALDRHQERQQRLIVMEERATIARELHDSIAQSLSCMKMQVSCLQMQGDALPESSRELLSQIRNELNCSWAQLRELLTTFRLQLTEPGLRPALEASCQEFSARFGFTVKLDYQLPPRLVPSHQAIHLLQIAREAPSNALKHSHADDVVVTVTQCGKQVKLKVQDNGCGVPENAERSNHYGMIIMRDRAQSLRGDCQVRRRETGGTEVTVTFIPETNFTETQGDTHE | failed |
| MFLFSLTLGVYCSSWTFYGATGAAVREGVIFLPIYLGPLLFVWFGYDIWRRLGRVRQHHAISSIADFVAARYGKSGVLASLVTILAVIAIIPYLALQLRAIALSTSVIMEQSSHIHTTTNSVLLLTSVLAILAMIFGTRQIANTEQHGGLMLAVAFESFVKLFALLCVALFFIFESPANLSQMTSDVNQTFQEVQLFGVPETFWIQTLLAGLAIICLPRQFHVAVVELRDEKHIRGARKWFAVYLILTILAIIPIASWALHAAPKFLTVPDVAVLSLPLSYNQEWLALLAFLGGFSASTGMLLVSSVALSIMLSNDLIMPALWRFKLLSRHDKHLPKVLKFSRRISIVAVMLLGFLFFHFFNDINQLSVFGLLAFSAVAQFAPALIGGLYWRGGSRQGVYAGLIIGFLMWSYTLLFPTILRSLPEAYQETAQSILLFGPFGINALRPESLFGFESFAPLTHGVIWSLGLNIVLYIWISKIYRPSVAEQIQAESFFYYETKPLPSPHTSTDLTYLPHDAARLKVGDLFALAKRITGEQPTTQAFENFCEQNHLTLNPNSIANGMWWRFTEQYLAGIIGAASARTLLTTAMINNGLALGQVANILDQASQWQRFNQNLLMTMIDHMTQGVSVVDKNMCLVAWNNQYLKLFGYPKDLVYVGCPIADLIRYNAERGECGPGSVEEHVRKRLHWMKVGSAHEFERIRKDGRVIQMRGNPIAGGGFVTTFADITAFRANEAVLEARVKDRTQQLADALTEQQLAREQADMANMSKSRFIAAASHDLLQPMHAARLFSTVLEQSISTEEDRQTLQQLDRALYGAESMLSALLDIARLEGGTIQPKRQPYPLHDLLSDLELQFKSIAAQRNISLKVHDVSFWIDTDPQWIRRIIQNFVSNALRYTAKGRVVVGVLRSAQQSGHIRIGVWDTGPGIAEEQRIKLFQEFERCGHLSPWGEQGLGLGLAIVQRMTGLLNYPVHVYSELGKGSCFMIEVPIVEPPKVATPAVQAVPLKTKAYRILCLDNDETILEGMSSLLGRWGYQVFKATEPEQALEIIQKENIQVWLIDQHLNHNQLGVDFITQNRQEDVPVALITADSHPELPQQLKELNIVLLKKPLKPASLRAWLSGLKIASTTD | failed |
| MTEQDIYKLLADGERVTLECKKAQNGVPNSLWETYSAFANTNGGILLLGVYENVAEKDSLMRFTITGVEDADKIRKDLWNTINSREKVNVNLLHDEDVQTISVNGKEVIAINVPRADYNLRPVYINNNLMRGTYRRNHEGDYHCTEQMIKMMVRDAYEDGNDRMFLEYYTMDDIDIPTLEGYRVMFKTNNPEHIWNSLDHKEFLMQLGGYVVNRKDGTEGLTIAGLLMFGKGLPVRERFDYLRMDYIDKSNLIGDQRYSDRLTYDGTWENNLFNFIRMVVPRLTRDIPRPFQMDGIIRKDDTPQHKAVREAFTNMIIHADLMLNGLLRVEKYDDRFVLSNPGLLKLPVEQIYAGGESKARNQRMQHMLRMIGYGENLGSGFPLILSAWNEKHWLKPELVEQPELMQVKLILHIENRVYVTKDVTKDVTKELTERQQIILEFMQADGTITISEMSQKTNVTERTIKRDIESLTEKGILSREGGRKEGRWVIRKILEHHHHHH | not failed |
| MDHYLRWRKRQKLLADFGEFALSNDNLADILTEACRLVGNALGTQRANVLEIEPSKRSLFVRAGVGLDDGIVGKLRLPMREIASERFSPDGSPLDIIHDVHTEPQYDLAAFMEVAGVVALVNVPILLPGRTLYGLLQVESSEPREFSQDDVEFLRTYSTILGPVIDRLNKVRALRDAEERFRLIVEAAR | not failed |
